The labels stand for the following.
B1: 10-H2 (antibody, V domains shown)
VH: EVQLVESGGDLVKPGGSLKLSCAASGFTFSDYGMHWVRQGPEKGLEWVAYINSGSSTIYYADTVKGRFTISRDNAKNTLFLQMTSLRSEDTAMYYCARPGDYDNYAMDYWGQGTSVTVSS
VL: DIVMTQSHKFLSTSVGDRVSITCKASQDVSVAVAWYQQKPGQSPKLLIYWAYTRHTGVPDRFTGSGSGTEYTLTISSVQAEDLALYYCQQHYNTPPWTFGGGTKLEIK
notes: Tested as a mouse monoclonal IgG; also called 10-H02
B2: 3-E5 (antibody, V domains shown)
VH: EIQMKQSGAELVKPGASVKISCKASGYSFTGYNMNWVKQSHGKSLEWIGNINPYYGSTGYNQKFKGKATLTVDKSSSTAYMQLNSLTSEDSAVYYCARGDYGYDEGTWFAYWGQGTLVTVSA
VL: DIVMSQSPSSLAVSAGEKVTMSCKSSQSLLNSRTRKNYLAWYQQKPEQSPKLLIYWASTRESGVPDRFTGSGSGTDFTLTISSVQAEDLAVYYCKQSYNLPFTFGSGTKLEIK
notes: Tested as a mouse monoclonal IgG; also called 3-E05
B3: Anti-TfR antibody 15G11 (antibody, V domains shown)
VH: QVQLQQPGAELVKPGASVKLSCKASGYTFTSYWMHWVKQRPGQGLEWIGEINPTNGRTNYIEKFKSKATLTVDKSSSTAYMQLSSLTSEDSAVYYCARGTRAYHYWGQGTSVTVSS
VL: DIQMTQSPASLSVSVGETVTITCRASDNLYSNLAWYQQKQGKSPQLLVYDATNLADGVPSRFSGSGSGTQYSLKINSLQSEDFGTYYCQHFWGTPLTFGAGTKLELK
notes: Known control antibody; It was captured as an IgG on the Carterra chip; also called ctrl-15G11; 15G11 (control)
B4: 5-H12 (antibody, V domains shown)
VH: QIQLQQSGPELVRPGASVKISCKASGYSFTDYCINWVNQRPGQGLEWIGWIYPGSGNTRYSERFKGKATLTVDTSSNTAYMQLSSLTSEDSAVYFCAREDYYPYHGMDYWGQGTSVTVSS
VL: DIVLTQSPTSLAVSLGQRATISCRASESVDGYDNSFMHWYQQKPGQPPKLLIFRASNLESGIPARFSGSGSRTDFTLTINPVEAADVATYYCQQSSEDPWTFGGGTKLEIK
notes: Tested as a mouse monoclonal IgG
B5: 2-H19 (antibody, V domains shown)
VH: EVQLQQSGAELVRSGASVKLSCTASGFNIKDYYMHWVKQRPEQGLEWIGWIDPESGDTEYAPKFQGRATMTADTSSNTAYMQLSSLTSEDTAVYYCYGHDYRVDCWGQGTSVTVSS
VL: DVVMTQTPLSLPVSLGDQASISCRSSQSLVHSNGNTYLHWYLQKPGQSPKLLIYKVSNRFSGVPDRFSGSGSGTDFTLKISRVEAEDLGVYFCSQSTHIPWTFGGGTKLEIK
notes: as for B4
B6: anti-TfR antibody shown in Table 7, unconjugated (Example 18) (antibody, V domains shown)
VH: QVQLVQSGAEVKKPGESLKISCKGSGYSFTSYWIGWVRQMPGKGLEWMGIIYPGDSDTRYSPSFQGQVTISADKSISTAYLQWSSLKASDTAMYYCARFPYDSSGYYSFDYWGQGTLVTVSS
VL: not shown
notes: also called anti-TfR alone; unconjugated anti-TfR
B7: anti-TfR antibody shown in Table 7 conjugated to a DMPK-targeting oligonucleotide (control DMPK-ASO) (antibody, V domains shown)
VH: B6 VH
VL: not shown
notes: Antibody-oligonucleotide conjugate; For the uptake assay the antibody was conjugated to several different DMPK-targeting oligonucleotides and labeled with Cypher5e; also called oligonucleotide-conjugated anti-TfR; anti-TfR Fab conjugates
B8: 15G11 (antibody, V domains shown)
VH: B3 VH
VL: B3 VL
notes: Known anti-TfR1 antibody used as control; also called control antibody 15G11; ctrl-15G11
B9: anti-TfR hIgG1 (with L234A/L235A mutations in HC constant region), Table 7 clone (antibody, V domains shown)
VH: B6 VH
VL: not shown
notes: Tied by the description 'anti-TfR IgG heavy chain (with human IgG1 constant region mutant L234A/L235A)'
B10: anti-TfR FAB, Table 7 clone (Fab, V domains shown)
VH: B6 VH
VL: not shown

One may read the Kd as the free concentration of one partner at which half of the binding sites on the other are occupied at equilibrium, for simple one-to-one binding. As a reminder, the kon is a measure of how fast the partners come together. As a reminder, the EC50 is the concentration that produces a half-maximal response.

In one assay the target is T1, human transferrin receptor 1 (human, UniProt P02786 89-760, limits assumed).
T1 construct: also called hTfR1; huTfR1
Put plainly: average KD, antibody alone; method not given.
Target sequence in this assay (P02786 89-760 limits assumed): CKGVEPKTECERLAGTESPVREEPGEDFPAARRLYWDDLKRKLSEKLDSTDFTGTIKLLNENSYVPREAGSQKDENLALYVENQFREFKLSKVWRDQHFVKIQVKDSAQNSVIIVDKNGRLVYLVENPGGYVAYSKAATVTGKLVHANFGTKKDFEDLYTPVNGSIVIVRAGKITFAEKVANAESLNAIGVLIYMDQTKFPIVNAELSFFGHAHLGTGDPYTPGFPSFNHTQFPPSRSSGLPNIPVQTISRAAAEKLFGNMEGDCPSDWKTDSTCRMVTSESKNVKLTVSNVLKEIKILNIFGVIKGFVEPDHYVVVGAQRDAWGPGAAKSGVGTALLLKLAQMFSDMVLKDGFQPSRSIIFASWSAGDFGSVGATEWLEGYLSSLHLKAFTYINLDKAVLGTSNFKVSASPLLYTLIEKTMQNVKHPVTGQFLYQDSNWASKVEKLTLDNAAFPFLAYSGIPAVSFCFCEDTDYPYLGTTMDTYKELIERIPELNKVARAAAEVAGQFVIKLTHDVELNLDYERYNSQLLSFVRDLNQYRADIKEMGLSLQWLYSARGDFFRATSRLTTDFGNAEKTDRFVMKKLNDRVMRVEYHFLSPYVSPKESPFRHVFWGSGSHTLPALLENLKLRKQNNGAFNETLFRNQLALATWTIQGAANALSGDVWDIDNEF
As for B1, the dissociation constant (Kd) is 2.72 nM.

In turn, B2 yielded a Kd of 0.455 nM.

In the case of B3, the Kd stood at 0.8 nM.

As for B4, the Kd came out at 202 nM.

Consider B5, for which the Kd was 2.06 nM.

The next assay addresses T2, cynomolgus monkey transferrin receptor 1 (cynomolgus monkey (Macaca fascicularis), UniProt Q5RDH6 89-760 (Pongo abelii entry), limits assumed).
T2 construct: also called cyTfR1; Cyno TfR1
T2 chain: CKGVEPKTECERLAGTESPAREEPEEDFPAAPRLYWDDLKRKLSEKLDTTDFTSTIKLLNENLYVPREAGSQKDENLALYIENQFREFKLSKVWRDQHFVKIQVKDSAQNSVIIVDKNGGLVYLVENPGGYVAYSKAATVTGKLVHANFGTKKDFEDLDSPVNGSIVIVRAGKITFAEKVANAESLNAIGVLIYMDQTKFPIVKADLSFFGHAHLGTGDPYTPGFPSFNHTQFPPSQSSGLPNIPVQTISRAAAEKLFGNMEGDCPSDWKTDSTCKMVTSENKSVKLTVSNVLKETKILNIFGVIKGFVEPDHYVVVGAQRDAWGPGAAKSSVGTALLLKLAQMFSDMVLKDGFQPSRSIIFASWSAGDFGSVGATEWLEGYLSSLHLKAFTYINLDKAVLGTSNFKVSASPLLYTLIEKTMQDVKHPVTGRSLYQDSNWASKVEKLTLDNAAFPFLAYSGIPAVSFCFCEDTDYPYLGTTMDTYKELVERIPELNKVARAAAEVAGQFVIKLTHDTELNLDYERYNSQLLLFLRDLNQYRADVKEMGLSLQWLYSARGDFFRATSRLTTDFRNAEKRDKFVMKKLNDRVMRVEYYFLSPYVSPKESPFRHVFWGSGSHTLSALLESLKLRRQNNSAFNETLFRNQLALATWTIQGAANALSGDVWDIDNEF
Kind of assay: average KD, antibody alone; method not given.
B1 showed a Kd of 12.4 nM.

B2 yielded a Kd of 0.671 nM.

B3 showed a dissociation constant (Kd) of 1 nM.

B4 showed a Kd of 12 nM.

Take B5: the equilibrium dissociation constant (Kd) stood at 5.75 nM.

In the next assay the target is T1, human transferrin receptor 1. Put plainly: Carterra LSA SPR array, IgG captured on anti-IgG lawn, hTfR1 as analyte, 25 C, 1:1 Langmuir fit. The procedure:
Selected anti-TfR1 antibodies were tested for their binding affinity to human TfR1 for measurement of Ka (association rate constant), Kd (dissociation rate constant), and KD (affinity). […] The binding experiment was performed on Carterra LSA at 25 C. An anti-mouse IgG and anti-human IgG antibody “lawn” was prepared on a HC30M chip by amine coupling. 59 IgGs (58 mouse mAbs and 1 human mAb) were captured on the chip. Dilution series of hTfR1, cyTfR1, and hTfR2 were injected to the chip for binding (starting from 1000 nM, 1:3 dilution, 8 concentrations).
Binding data were referenced by subtracting the responses from a buffer analyte injection and globally fitting to a 1:1 Langmuir binding model for estimate of Ka (association rate constant), Kd (dissociation rate constant), and KD (affinity) using the Carterra™ Kinetics software. 5-6 concentrations were used for curve fitting.
Target sequence in this assay (P02786 89-760 limits assumed): as the sequence (P02786 89-760 limits assumed) above
B1 had a dissociation constant Kd of 2.72 nM and a kon of 126000 M⁻¹ s⁻¹.

In turn, B2 yielded a Kd of 0.455 nM and an association rate constant (kon) of 22000 M⁻¹ s⁻¹.

In turn, B3 registered a dissociation constant Kd of 0.283 nM.

On to B4, for which the affinity, expressed as Kd, was 208 nM and the kon worked out at 66700 M⁻¹ s⁻¹.

The molecule B5 gave a dissociation constant Kd of 2.06 nM and a kon of 222000 M⁻¹ s⁻¹.

The next assay shares this target. Put plainly: ELISA on human TfR1. The procedure: (§1) The binding activity of selected formats were tested against human TfR1, cyno TfR1, and human TfR2 in an ELISA assay.
In the case of B3, the EC50 was determined as 0.589 nM.

A further assay has as its target T2, cynomolgus monkey transferrin receptor 1. Kind of assay: ELISA on cyno TfR1. The procedure: as §1
For orientation: In an ELISA, binding on a coated surface is turned into a signal by an enzyme label.
For the molecule B3, the EC50 is 1.08 nM.

A further assay addresses T3, cynomolgus monkey transferrin receptor 1 (cynomolgus monkey, UniProt Q5RDH6 89-760 (Pongo abelii entry), limits assumed).
T3 construct: also called cTfR1; cyTfR1
T3 chain: T2 chain
Kind of assay: ELISA.
The molecule B6 showed an EC50 of 33.6 nM.

In turn, B7 registered a 50% effective concentration (EC50) of 5.3 nM.

In another assay the target is T4, human transferrin receptor 1 (human, UniProt P02786 89-760, limits assumed).
T4 construct: also called hTfR1; human TfR1
Put plainly: ELISA.
As for B6, the 50% effective concentration (EC50) was 26.6 nM.

Turning to B7, a half-maximal effect (EC50) was put at 8.2 nM.

For the next assay, the target named is T5, human transferrin receptor 2 (human, UniProt Q9UP52 105-801, limits assumed).
T5 construct: also called human TfR2; hTfR2
T5 sequence (looked up): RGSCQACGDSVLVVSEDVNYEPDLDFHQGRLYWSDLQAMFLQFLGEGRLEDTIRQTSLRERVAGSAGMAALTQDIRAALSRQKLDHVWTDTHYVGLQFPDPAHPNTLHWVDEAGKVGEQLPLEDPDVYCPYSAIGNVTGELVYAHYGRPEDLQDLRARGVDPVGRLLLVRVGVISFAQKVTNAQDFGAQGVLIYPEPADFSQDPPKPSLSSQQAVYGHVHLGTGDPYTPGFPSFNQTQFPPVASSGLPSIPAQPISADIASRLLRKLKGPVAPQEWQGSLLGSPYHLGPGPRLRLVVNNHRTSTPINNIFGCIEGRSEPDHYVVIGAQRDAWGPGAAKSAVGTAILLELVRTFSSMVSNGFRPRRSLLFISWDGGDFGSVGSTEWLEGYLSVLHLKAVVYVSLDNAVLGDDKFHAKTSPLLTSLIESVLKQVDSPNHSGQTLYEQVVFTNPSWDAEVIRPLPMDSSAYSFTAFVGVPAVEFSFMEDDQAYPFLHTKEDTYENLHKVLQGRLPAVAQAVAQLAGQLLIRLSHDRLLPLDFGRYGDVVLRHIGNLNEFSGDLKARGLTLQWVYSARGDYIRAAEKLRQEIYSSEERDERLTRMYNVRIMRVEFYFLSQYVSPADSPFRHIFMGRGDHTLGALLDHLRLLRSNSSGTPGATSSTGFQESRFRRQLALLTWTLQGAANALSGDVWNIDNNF
Put plainly: ELISA.
On to B8, for which the binding result is given as “no binding”.

Turning to B9, the binding result is on record as “no binding”.

On to B10, for which the binding result is reported as “no binding”.
